± gives the uncertainty stated by the source.
B1: Membrane-associated guanylate kinase, WW and PDZ domain-containing protein 2, residues 296 to 340; numbered along this chain, Q86UL8 (parent)
chain: EDNEEPDPLPDNWEMAYTEKGEVYFIDHNTKTTSWLDPRLAKKAK

Variants of: B1
Assay: abundance fitness (aPCA) (normalised: wild type 0, dead -1); higher = more abundant; growth selection in yeast, the domain comes from the species named
Details: Homo sapiens

Abundance fitness, by site and new letter:
P6: D -0.266 ± 0.05 | H 0.091 ± 0.068
K20: P -0.353 ± 0.068 | R -0.032 ± 0.042 | G -0.011 ± 0.042 | I -0.12 ± 0.065 | E 0.027 ± 0.067 | T -0.063 ± 0.06 | A -0.02 ± 0.043 | V -0.075 ± 0.044 | C -0.009 ± 0.092
E14: T -0.162 ± 0.084 | A -0.47 ± 0.18 | V -0.264 ± 0.048 | W -1.04 ± 0.14 | F -0.705 ± 0.1 | R -0.415 ± 0.06 | L -0.561 ± 0.069
H28: R -0.243 ± 0.045 | W -0.334 ± 0.044 | P -0.652 ± 0.065 | A -0.417 ± 0.045 | Y -0.525 ± 0.079 | V -0.407 ± 0.063 | Q -0.267 ± 0.06
P8: G -0.03 ± 0.044 | H -0.105 ± 0.058 | I -0.156 ± 0.096 | T -0.035 ± 0.059 | S -0.056 ± 0.056 | Y -0.228 ± 0.12 | M 0.019 ± 0.074 | R 0.052 ± 0.062
N29: L -0.059 ± 0.05 | E -0.081 ± 0.091 | Q -0.13 ± 0.12 | S -0.011 ± 0.06 | G -0.019 ± 0.049 | V -0.051 ± 0.069 | T -0.02 ± 0.058 | W -0.151 ± 0.056 | A 0.022 ± 0.069
D7: V 0.134 ± 0.06 | W 0.01 ± 0.057 | Q 0.054 ± 0.12 | L 0.04 ± 0.07 | S 0.04 ± 0.07 | A 0.185 ± 0.077
T30: E -0.156 ± 0.067 | G -0.256 ± 0.037 | C -0.185 ± 0.061 | P -1.17 ± 0.076 | M -0.388 ± 0.34 | R -0.183 ± 0.038 | V -0.386 ± 0.049 | Q -0.155 ± 0.079 | S 0.122 ± 0.075 | L -0.221 ± 0.058
W35: S -0.436 ± 0.054 | Q -0.365 ± 0.065 | G -0.523 ± 0.039 | M -0.247 ± 0.054 | I -0.492 ± 0.055 | V -0.473 ± 0.063 | T -0.451 ± 0.089 | A -0.489 ± 0.042 | Y -0.036 ± 0.068 | D -0.547 ± 0.1 | F -0.083 ± 0.1 | C -0.527 ± 0.072 | K -0.494 ± 0.078 | P -0.668 ± 0.089
F25: S -0.777 ± 0.066 | G -0.75 ± 0.054 | W -0.103 ± 0.09 | E -0.661 ± 0.14 | N -0.756 ± 0.1 | R -0.715 ± 0.063
W13: L -0.385 ± 0.056 | S -0.556 ± 0.069 | V -0.32 ± 0.17
E22: Y -0.404 ± 0.067 | A -0.228 ± 0.052 | M -0.314 ± 0.061 | N -0.314 ± 0.08 | F -0.645 ± 0.43 | Q -0.084 ± 0.065 | W -0.551 ± 0.051 | G -0.359 ± 0.042 | S -0.227 ± 0.046 | D -0.091 ± 0.05 | C -0.377 ± 0.095 | I -0.517 ± 0.12
S34: R -0.629 ± 0.073 | L -1.14 ± 0.15 | A -0.43 ± 0.064 | G -0.463 ± 0.076
E4: L 0.03 ± 0.096 | S 0.078 ± 0.089 | G 0.1 ± 0.07
P10: M -0.166 ± 0.32 | D -0.341 ± 0.045 | L -0.449 ± 0.054 | T -0.468 ± 0.063 | R -0.532 ± 0.04 | E -0.376 ± 0.051 | F -0.615 ± 0.091 | H -0.614 ± 0.061 | I -0.637 ± 0.069 | K -0.498 ± 0.072 | W -0.469 ± 0.046 | C -0.654 ± 0.13 | G -0.436 ± 0.041 | Y -0.508 ± 0.061
K43: L -0.113 ± 0.053 | R 0.023 ± 0.063 | F -0.142 ± 0.093 | V 0.023 ± 0.094 | W -0.2 ± 0.075 | D 0.029 ± 0.12 | G 0.066 ± 0.047 | I -0.139 ± 0.48 | A 0.062 ± 0.085
Y17: A -0.025 ± 0.056 | S -0.03 ± 0.064 | K -0.048 ± 0.1 | H 0.066 ± 0.089 | R 0.049 ± 0.055 | L 0.024 ± 0.069 | T -0.039 ± 0.14
R39: M -0.599 ± 0.056 | P -0.633 ± 0.069 | L -0.63 ± 0.046 | G -0.46 ± 0.06 | H -0.419 ± 0.13 | K -0.411 ± 0.058 | T -0.366 ± 0.1 | Q -0.497 ± 0.054 | N -0.289 ± 0.15
K45: E -0.022 ± 0.098 | G 0.081 ± 0.067 | Q 0.1 ± 0.21
V23: E -0.038 ± 0.046 | P -0.038 ± 0.099
I26: A -0.521 ± 0.073 | E -0.585 ± 0.077 | L -0.089 ± 0.068 | H -0.618 ± 0.077 | C -0.258 ± 0.093 | D -1.15 ± 0.16 | T -0.733 ± 0.35 | W -0.691 ± 0.1 | F -0.549 ± 0.17
T32: V -0.111 ± 0.045 | M -0.071 ± 0.069 | Q -0.199 ± 0.067 | S -0.08 ± 0.064 | K -0.303 ± 0.12 | W -0.325 ± 0.073 | C 0.007 ± 0.11
N12: V -0.703 ± 0.14 | S -0.199 ± 0.077 | G 0.088 ± 0.061 | D -0.136 ± 0.064 | R -0.044 ± 0.051 | T -0.224 ± 0.093 | W -0.271 ± 0.091

From the Human Domainome abundance scans (Beltran et al. 2025)
